For this data set, the target named is T1, LmrR (Lactococcus lactis) (UniProt A2RI36).
T1 sequence: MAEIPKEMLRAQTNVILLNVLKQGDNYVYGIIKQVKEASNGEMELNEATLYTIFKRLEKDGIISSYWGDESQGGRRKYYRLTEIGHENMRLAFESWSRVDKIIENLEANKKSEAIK
In words: NMR titration. The settings on record: apo; apparent Kd per base pair; DNA is a fragment pool; 10 mM NaPi pH 6.8, 100 mM NaCl, 25 C (ITC; same buffer for NMR); 5% DMSO in riboflavin titrations.

Regarding sonicated E. coli genomic DNA, the Kd was found to be 37 µM.

The values are drawn from paper PMC5428041, “Dynamic equilibrium on DNA defines transcriptional regulation of a multidrug binding transcriptional repressor, LmrR” (Scientific Reports, 2017).
